{"source": "patent US20200199533A1", "about": "(KING ABDULLAH UNIVERSITY OF SCIENCE AND TECHNOLOGY, published 2020)", "binders": {"B1": {"name": "recombinant E-selectin human immunoglobulin chimeric protein (Fc fusion)", "chain": "WSYNTSTEAMTYDEASAYCQQRYTHLVAIQNKEEIEYLNSILSYSPSYYWIGIRKVNNVWVWVGTQKPLTEEAKNWAPGEPNNRQKDEDCVEIYIKREKDVGMWNDERCSKKKLALCYTAACTNTSCSGHGECVETINNYTCKCDPGFSGLKCEQIVNCTALESPEHGSLVCSHPLGNFSYNSSCSISCDRGYLPSSMETMQCMSSGEWSAPIPACNVVECDAVTNPANGFVECFQNPGSFPWNTTCTFDCEEGFELMGAQSLQCTSSGNWDNEKPTCKAVTCRAVRQPQNGSVRCSHSPAGEFTFKSSCNFTCEEGFMLQGPAQVECTTQGQWTQQIPVCEAFQCTALSNPERGYMNCLPSASGSFRYGSSCEFSCEQGFVLKGSKRLQCGPTGEWDNEKPTCEAVRCDAVHQPPKGLVRCAHSPIGEFTYKSSCAFSCEEGFELHGSTQLECTSQGQWTEEVPSCQVVKCSSLAVPGKINMSCSGEPVFGTVCKFACPEGWTLNGSAARTCGATGHWSGLLPTCEAPTESNIP"}}, "key": {"[1]": {"molecular_target": "CD44 (HCELL), native glycoprotein from human HSPCs (KG1a, CD34^pos fraction) (human) (UniProt P16070)", "sequence (P16070 21-742)": "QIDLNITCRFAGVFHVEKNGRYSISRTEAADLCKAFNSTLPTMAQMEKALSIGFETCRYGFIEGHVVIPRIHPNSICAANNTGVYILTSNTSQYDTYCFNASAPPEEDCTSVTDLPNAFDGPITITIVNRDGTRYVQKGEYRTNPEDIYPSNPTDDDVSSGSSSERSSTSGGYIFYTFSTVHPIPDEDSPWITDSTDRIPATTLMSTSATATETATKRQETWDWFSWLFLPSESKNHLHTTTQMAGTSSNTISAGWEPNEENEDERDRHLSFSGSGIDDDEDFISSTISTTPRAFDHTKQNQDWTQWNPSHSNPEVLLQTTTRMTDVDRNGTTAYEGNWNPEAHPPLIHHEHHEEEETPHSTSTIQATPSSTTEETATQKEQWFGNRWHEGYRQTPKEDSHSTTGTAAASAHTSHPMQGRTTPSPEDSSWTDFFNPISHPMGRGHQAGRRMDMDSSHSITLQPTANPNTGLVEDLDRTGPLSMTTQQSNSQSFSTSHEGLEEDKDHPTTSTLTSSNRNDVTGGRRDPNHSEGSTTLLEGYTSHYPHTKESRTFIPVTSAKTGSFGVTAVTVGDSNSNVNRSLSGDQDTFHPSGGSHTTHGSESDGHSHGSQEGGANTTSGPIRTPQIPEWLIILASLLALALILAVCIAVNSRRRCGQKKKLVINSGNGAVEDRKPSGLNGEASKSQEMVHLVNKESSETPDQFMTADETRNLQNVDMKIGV", "assay": "SPR; CD44 captured from KG1a lysate on Hermes-3-mAb, E-Ig injected, 150 mM NaCl; apparent rate constant; 2nd experiment"}, "[2]": {"molecular_target": "T1, CD34, native glycoprotein from human HSPCs (KG1a, CD34^pos-BM, CD34^pos-UCB, CD34^pos-AML) (human, UniProt P28906 32-385, native glycosylation (about 120-130 kDa form); sialylated O-glycans and tyrosine sulfation are shown to matter for selectin binding)", "T1 construct": "mature; also called E-selL CD34", "T1 sequence (looked up)": "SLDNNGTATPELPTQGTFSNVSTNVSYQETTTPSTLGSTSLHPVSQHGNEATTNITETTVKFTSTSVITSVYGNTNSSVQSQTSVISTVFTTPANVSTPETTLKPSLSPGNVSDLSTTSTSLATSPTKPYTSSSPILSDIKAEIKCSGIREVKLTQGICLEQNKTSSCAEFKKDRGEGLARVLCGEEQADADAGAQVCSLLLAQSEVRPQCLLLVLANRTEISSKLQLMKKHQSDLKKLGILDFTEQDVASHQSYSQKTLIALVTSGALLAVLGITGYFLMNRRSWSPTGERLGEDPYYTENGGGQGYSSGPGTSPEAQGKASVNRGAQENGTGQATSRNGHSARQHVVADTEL", "assay": "SPR; CD34 captured from KG1a lysate on 563-mAb, E-Ig injected, 150 mM NaCl; apparent rate constant; 1st experiment"}, "[3]": {"molecular_target": "T1, CD34, native glycoprotein from human …", "assay": "SPR; CD34 captured from KG1a lysate on 563-mAb, E-Ig injected (3.9-2000 nM), 150 mM NaCl; steady-state model; 3rd experiment"}, "[4]": {"molecular_target": "T2, PSGL-1, native glycoprotein from human HSPCs (KG1a, CD34^pos-BM) (human, UniProt Q14242 42-412, native glycosylation and tyrosine sulfation)", "T2 construct": "mature; also called P-selectin glycoprotein ligand-1", "T2 sequence (looked up)": "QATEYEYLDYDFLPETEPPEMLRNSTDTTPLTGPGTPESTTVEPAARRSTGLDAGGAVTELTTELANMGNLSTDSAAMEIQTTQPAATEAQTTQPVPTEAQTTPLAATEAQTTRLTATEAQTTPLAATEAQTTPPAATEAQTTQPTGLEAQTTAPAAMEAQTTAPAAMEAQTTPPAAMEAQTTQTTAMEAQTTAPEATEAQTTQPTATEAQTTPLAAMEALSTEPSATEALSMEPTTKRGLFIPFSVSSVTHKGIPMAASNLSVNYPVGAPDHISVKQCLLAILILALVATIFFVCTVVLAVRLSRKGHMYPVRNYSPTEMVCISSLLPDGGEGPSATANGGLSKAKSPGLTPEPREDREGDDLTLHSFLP", "assay": "SPR; PSGL-1 captured from KG1a lysate on KPL-1-mAb, E-Ig injected (3.9-2000 nM), 150 mM NaCl; steady-state model; 2nd experiment"}}, "data": [{"binder": "B1", "values": [{"measurement": "koff", "setting": "[1]", "result": 0.0002, "unit": "s⁻¹"}, {"measurement": "kon", "setting": "[1]", "result": 794, "unit": "M⁻¹ s⁻¹"}, {"measurement": "koff", "setting": "[2]", "result": 0.00029, "unit": "s⁻¹"}, {"measurement": "kon", "setting": "[2]", "result": 2030, "unit": "M⁻¹ s⁻¹"}, {"measurement": "Kd", "setting": "[3]", "result": 297, "unit": "nM"}, {"measurement": "Kd", "setting": "[4]", "result": 207, "unit": "nM"}]}]}
